These results are taken from FireProtDB (doi:10.1002/prot.340080106).

For the data set the following is noted: Bos taurus; pH 7; 25 °C; Urea; CD; PIPES-KOH 20 mM; reversible: yes; whole UniProt chain shown.

B1: Protein S100-G wild type, P02633 (protein)
chain: MSAKKSPEELKGIFEKYAAKEGDPNQLSKEELKLLLQTEFPSLLKGPSTLDELFEELDKNGDGEVSFEEFQVLVKKISQ
Consider B1, for which the “denaturant midpoint (higher = more stable)” value was found to be 5.3 M and the unfolding free energy was determined as 0.29 kcal/mol.
